± gives the uncertainty stated by the source.
Experiment: protein stability index of a GFP-peptide fusion (yeast GPS) (PSI 1-4); higher = more stable; sorted into four equal gates, so the index is relative within each strain
Procedure, shortened: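 Plasmids in a pooled yeast library fused tiled 17-residue yeast protein peptides downstream of GFP and also expressed Cherry. Mid-log cultures grown without leucine were sorted into four equal gates by GFP/Cherry fluorescence ratio. Each gate's plasmids were PCR-amplified and Illumina-sequenced, and reads were matched to strains by barcodes. The protein stability index is derived by multiplying each gate's read frequency by its gate number and summing the results.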

Sequence	protein stability index (doa10∆)	protein stability index (pdr5∆)	protein stability index (san1∆)	protein stability index (ubr1∆)
VIKTLTVDVSSPTENGV [RPL22B]	2.3 ± 0.14	2.55 ± 0.089	2.32 ± 0.13	2.83 ± 0.064
VILGDANSSTIRVTNSF [RPN8]	3.01 ± 0.092	2.94 ± 0.072	2.89 ± 0.066	3.06 ± 0.052
VILQSDLEEAYATQVKT [RPT3]	2.2 ± 0.1	2.57 ± 0.069	2.3 ± 0.083	2.53 ± 0.068
VINIAKAHPNFPIALQW [FAS1]	2.82 ± 0.1	2.88 ± 0.086	2.25 ± 0.091	2.23 ± 0.076
VIQQDKYQKALHYLKKF [SRP72]	1.61 ± 0.098	1.26 ± 0.079	1.2 ± 0.14	2.15 ± 0.1
VITLAEYEKRNHGGSLG [SRP68]	3.42 ± 0.11	3.06 ± 0.13	3.28 ± 0.074	3.55 ± 0.14
VITNLFSAIPFVGNDIV [COB]	3.14 ± 0.05	3.12 ± 0.053	3.14 ± 0.034	3.13 ± 0.036
VIWSEDNDEKLIIRCRV [RPO21]	3.34 ± 0.15	2.96 ± 0.19	3.53 ± 0.088	2.84 ± 0.19
VKAQRPITGASLDLIKE [RPL24A]	2.42 ± 0.062	2.07 ± 0.049	2.69 ± 0.074	2.73 ± 0.05
VKDFTSLGFNEVFSRPE [RPO21]		2.56 ± 0.27	2.96 ± 0.27	2.9 ± 0.19
VKDKEEDHIFFKYIYEL [YDL116W/NUP84]	1.34 ± 0.07	1.09 ± 0.093	1.16 ± 0.16	1.06 ± 0.076
VKEMEPKQSDEYLKRVS [SIR3]	2.69 ± 0.056	2.74 ± 0.057	3.05 ± 0.05	2.54 ± 0.076
VKKQKSARGIETRPAQV [FAS2]	2.77 ± 0.1	3 ± 0.094	3.1 ± 0.083	3.09 ± 0.082
VKLKQQKVNAVDSTFQK [SMC3]		2.9 ± 0.19	3.36 ± 0.15	3.29 ± 0.062
VKLYGREGSSARTIKAT [RPB2]	2.47 ± 0.12	3.36 ± 0.12	3.25 ± 0.088	3.29 ± 0.19
VKNVKNSDLEFNTFWDE [ARP9]	3.08 ± 0.088	3.13 ± 0.14	3.53 ± 0.11	3.46 ± 0.084
VKRIQSVPLVIGQFLEP [RPT3]	1.58 ± 0.064	1.6 ± 0.063	2.38 ± 0.11	3 ± 0.094
VKRLLFTIRGFKQKLNE [MTW1]	3.04 ± 0.058	2.76 ± 0.048	2.86 ± 0.044	3.14 ± 0.043
VKVNHNEKRYATASAIA [RPL4A]	2.29 ± 0.1	2.62 ± 0.11	2.1 ± 0.12	2.18 ± 0.067
VLALKVEDFLERRLQTQ [RPS9A]	2.42 ± 0.14	2.86 ± 0.092	2.63 ± 0.072	2.83 ± 0.076
VLDIVPGSSITETEVER [SRB4]	3.04 ± 0.13	2.88 ± 0.15	2.57 ± 0.18	2.83 ± 0.12
VLETHESGIKPYFEQKI [RPT6]	2.33 ± 0.21	2.29 ± 0.28	2.58 ± 0.065	
VLFAAYKVEHPFFARFK [RPB11]	2.71 ± 0.089	1.87 ± 0.05	2.18 ± 0.067	2.27 ± 0.1
VLIFFQMTQIMDIMEDF [SNF2]	1.67 ± 0.083	1.52 ± 0.085	2.18 ± 0.13	2.42 ± 0.091
VLKESIVNICDIQEEQV [PUP1]	3.15 ± 0.22	3.04 ± 0.22	3.33 ± 0.14	

Sequence	protein stability index (doa10∆)	protein stability index (pdr5∆)	protein stability index (san1∆)	protein stability index (ubr1∆)
VLLTFLQDELHKVSSQS [YCS4]	3.54 ± 0.17	3.45 ± 0.2	2.95 ± 0.23	3.27 ± 0.13
VLLVLPFTDRSVVRGNT [COB]	3.11 ± 0.14	3.31 ± 0.15	3.52 ± 0.07	3.34 ± 0.15
VLQDLRLGSKKLVEIIW [YJL039C/NUP192]	3.25 ± 0.1	3.09 ± 0.16	3.15 ± 0.068	3.39 ± 0.14
VLQKVIEWAEHHRDSNF [SKP1]	3.08 ± 0.078	3.14 ± 0.063	3.04 ± 0.049	3.25 ± 0.062
VLRLNAIPLLKVLRKFR [NUT1]	1.98 ± 0.052	2.21 ± 0.054	2.06 ± 0.084	2.3 ± 0.038
VLRPFLLRRLKKDVEKE [SNF2]	2.8 ± 0.13	3.16 ± 0.19		3.11 ± 0.12
VLRRLLAKYRDAGKIDK [RPL19A]	3.29 ± 0.18	3.37 ± 0.15		3.61 ± 0.093
VLSTEEILNIFKHISVK [RPO21]	2.68 ± 0.13	3.44 ± 0.24	2.94 ± 0.12	1.6 ± 0.17
VLVLRGTLEGHNGWVTS [ASC1]	2.75 ± 0.15	2.1 ± 0.14	2.1 ± 0.15	2.76 ± 0.18
VLVSSVTEANIIKLVEG [RPS12]	2.52 ± 0.12	2.58 ± 0.067	2.67 ± 0.083	2.71 ± 0.072
VLYHTSGAITFVNETPR [PRP8]	2.06 ± 0.06	2.24 ± 0.075	2.43 ± 0.068	1.53 ± 0.04
VMEYDVKFYEIFNFDQL [SRB8]	1.97 ± 0.11	1.9 ± 0.12	1.66 ± 0.13	1.74 ± 0.1
VMSSDDENAPVATNANA [PRE10]	3.27 ± 0.18	3.42 ± 0.11	3.15 ± 0.13	2.5 ± 0.26
VNAIKNEVKEWAVTLDT [DSN1]	3.11 ± 0.13	2.82 ± 0.13	3.1 ± 0.074	3.33 ± 0.12
VNDFSDITSDQLLQRLN [SMC3]	2.56 ± 0.055	2.24 ± 0.053	2.41 ± 0.083	2.6 ± 0.04
VNDKYKTCAEVIGGNSL [SMC3]	3.06 ± 0.14	3.15 ± 0.16	3.29 ± 0.11	3.21 ± 0.15
VNEENDSYIALYEKDIV [RET1]	2.6 ± 0.064	2.56 ± 0.076	2.69 ± 0.061	2.68 ± 0.07
VNESRNSDDIIDVDMDA [SRB5]	2.27 ± 0.065	2.2 ± 0.053	2.57 ± 0.078	2.59 ± 0.052
VNFTEIGGLIPQWKRHL [YCS4]	3.46 ± 0.25			
VNGSTTAGVGSTPNFGG [SIN4]	3.58 ± 0.079	3.33 ± 0.095	3.4 ± 0.078	3.25 ± 0.077
VNGVPLRRVNARYVIAT [RPL6A]	1.61 ± 0.095	1.9 ± 0.066	1.37 ± 0.11	1.23 ± 0.05
VNLDNTAVGKAAVVKTS [RPT5]	3.16 ± 0.064	3.12 ± 0.057	3.28 ± 0.041	3.05 ± 0.039
VNLENPIPIAVLDSYTP [FAS1]	1.42 ± 0.046	1.7 ± 0.036	1.69 ± 0.071	1.42 ± 0.027
VNLSQEALQYDPQPFLK [SNU114]	2.99 ± 0.056	2.84 ± 0.061	2.97 ± 0.044	3 ± 0.046

Reference: the supplement of paper PMC9732359
